# Measurements as given in patent publication US8173604B2, “Inhibition of Skp2-cyclin a interaction” (Albert Einstein College of Medicine of Yeshiva University, priority 2006, dated 2012).
# Tests used:
# p27-cyclin A interaction = target: T1, p27-cyclin A interaction (Homo sapiens, UniProt P20248); assay: GST pull-down, blocking of p27-cyclin A interaction; format: binding; conditions: GST-p27, myc-cyclin A/Cdk2 transfected 293T cell extracts
# T1 construct: expressed in transfected cells; host or cells: 293T (cyclin A/Cdk2)
# Protocol: (§1) GST pull down, p27 ubiquitylation assay, and cyclin A kinase assay. GST fusion proteins were purified on GSH-beads (Amersham), which were then incubated with transfected cell extracts for 1 hour in 4° C. with rocking. The beads were washed three times with lysis buffer (25 mM Hepes pH 7.6, 100 mM KCl, 0.1 mM EDTA, 10 mM MgCl2, 0.1% NP-40, 10% glycerol, 1 mM DTT) before analysis by SDS-PAGE and Western blotting.
# Skp2-cyclin A interaction and p27-cyclin A interaction can be blocked by distinct peptides. An important aspect of the RxL-1-IP interaction is that it can be blocked by a short RxL peptide (Adams et al., 1996). If the Skp2-cyclin A/Cdk2 interaction and the p27-cyclin A/Cdk2 interaction are mediated by different sequences on both sides of the interaction, as shown above, it can be predicted that the RxL peptide should not block Skp2-cyclin A interaction. […] Peptide concentrations required for their respective blocking activities were similar for RxL and 4060 peptides.
# Skp2 competes with p27/p21, but not E2F1, for binding to cyclin A. Whether the apparently distinct Skp2-cyclin A interaction and p27-cyclin A interaction are competitive against each other was next evaluated. […] Whether the competition between Skp2 and p27/p21 for cyclin A binding could be observed in vivo with endogenous proteins under physiological conditions was next determined. […]
# [1] = target: T2, GST-p21 binding to cyclin A/Cdk2 (Homo sapiens, UniProt P20248); assay: GST pull-down, competition with GST-p21 for binding to cyclin A/Cdk2; conditions: increasing amounts of Skp2N
# T2 construct: expressed in transfected cells; host or cells: 293T (cyclin A/Cdk2); The GST-p21 plasmid was a gift and the fusion was purified on GSH beads
# Protocol: as §1
# Skp2 competes with p27/p21, but not E2F1, for binding to cyclin A. Whether the apparently distinct Skp2-cyclin A interaction and p27-cyclin A interaction are competitive against each other was next evaluated. […] Skp2N also competed with GST-p21 for binding to cyclin A/Cdk2 (FIG. 6A right). Whether the competition between Skp2 and p27/p21 for cyclin A binding could be observed in vivo with endogenous proteins under physiological conditions was next determined. Since abundant amounts of cyclin A are already bound by Skp2 and very little is bound by p27 or p21 in various cell lines (unpublished results), this issue was addressed from the other direction of competition by testing whether p27/p21 could compete Skp2 away from cyclin A. For this purpose, we treated U2OS cells with actinomycin D to activate p53, which led to a significant increase in p21 protein levels.
# E2F1-cyclin A binding = target: T3, E2F1-cyclin A binding (Homo sapiens, UniProt P20248); assay: GST pull-down, competition for E2F1-cyclin A binding
# T3 construct: expressed in transfected cells; host or cells: 293T (cyclin A/Cdk2); The GST-E2F1 plasmid was a gift and the fusion was purified on GSH beads
# Protocol: as §1
# Whether Skp2 competes with another RxL protein, E2F1, for cyclin A binding (Krek et al., 1994) was next determined.
# cyclin A/Cdk2 = target: T4, cyclin A/Cdk2 (Homo sapiens, UniProt P20248+P24941); assay: In vitro cyclin A/Cdk2 kinase assay with purified proteins (GST-Rb-C substrate); format: biochemical; conditions: 80 nM protein added to p27-containing kinase reaction
# T4 construct: made in house; host or cells: insect cells (baculovirus)
# Protocol: Cyclin A/Cdk2 kinase assays were performed as described previously (Ji et al., 2004). Both immuno-purified myc-cyclin A/Cdk2 on beads and GST-purified and eluted GST-cyclin A/Cdk2 (baculovirus vectors for GST-cyclin A and Cdk2 were provided by Brian Dynlacht) were used. The amounts of purified proteins were determined by comparing them with known amounts of standard proteins in Coomassie blue stained gels. Phosphorylation of GST-Rb-C was quantified with the ImageQuant software. The Ki of various proteins was determined by non-linear least squares analysis. […] Actual amounts of proteins in 7.5×10^4 HeLa cells were then determined (for example, the amounts of p27, Skp2, and cyclin A in 7.5×10^4 HeLa cells were determined to be about 0.1, 0.2, and 0.1 pmoles, respectively, at 14 hours post-replating; and about 0.01, 0.1, and 1.0 pmoles, respectively, at 19 hours post-replating).
# For kinase reactions, insect cell-produced and purified GST-cyclin A/Cdk2 was used at a concentration of ˜3 nM, which was the lowest concentration that yielded readily detectible phosphorylation of GST-Rb-C here. […] Phosphorylation of Rb-C was measured and plotted, and the Ki of these various proteins were determined by non-linear least squares analysis (FIG. 7F). […]
# It was then determined whether the 4060 peptide could prevent Skp2N from protecting cyclin A/Cdk2 from inhibition by p27. […]
molecule,measurement,setting,value
"Skp2N: Skp2 N-terminus (N terminal 100 residues), GST cleaved (protein, left off: a dimerising Fc or GST, Skp2 N-terminus (N terminal 100 residues), GST cleaved) MHVFKTPGPADAMHRKHLQEIPDLSSNVATSFTWGWDSSKTSELLSGMGVSALEKEEPDSENIPQELLSNLGHPESPPRKRLKSKGSDKDFVIVRRPKLN",Blocking of p27-cyclin A interaction,p27-cyclin A interaction,progressively diminished
same,Competition with GST-p21 for binding to cyclin A/Cdk2,[1],competed
same,Effect on E2F1-cyclin A binding,E2F1-cyclin A binding,did not affect
same,Protection of cyclin A/Cdk2 from inhibition by p27,cyclin A/Cdk2,completely reversed
